Target: tppc9_human TRAPPC9 (UniProt Q96Q05)
Sequence (Q96Q05 whole entry): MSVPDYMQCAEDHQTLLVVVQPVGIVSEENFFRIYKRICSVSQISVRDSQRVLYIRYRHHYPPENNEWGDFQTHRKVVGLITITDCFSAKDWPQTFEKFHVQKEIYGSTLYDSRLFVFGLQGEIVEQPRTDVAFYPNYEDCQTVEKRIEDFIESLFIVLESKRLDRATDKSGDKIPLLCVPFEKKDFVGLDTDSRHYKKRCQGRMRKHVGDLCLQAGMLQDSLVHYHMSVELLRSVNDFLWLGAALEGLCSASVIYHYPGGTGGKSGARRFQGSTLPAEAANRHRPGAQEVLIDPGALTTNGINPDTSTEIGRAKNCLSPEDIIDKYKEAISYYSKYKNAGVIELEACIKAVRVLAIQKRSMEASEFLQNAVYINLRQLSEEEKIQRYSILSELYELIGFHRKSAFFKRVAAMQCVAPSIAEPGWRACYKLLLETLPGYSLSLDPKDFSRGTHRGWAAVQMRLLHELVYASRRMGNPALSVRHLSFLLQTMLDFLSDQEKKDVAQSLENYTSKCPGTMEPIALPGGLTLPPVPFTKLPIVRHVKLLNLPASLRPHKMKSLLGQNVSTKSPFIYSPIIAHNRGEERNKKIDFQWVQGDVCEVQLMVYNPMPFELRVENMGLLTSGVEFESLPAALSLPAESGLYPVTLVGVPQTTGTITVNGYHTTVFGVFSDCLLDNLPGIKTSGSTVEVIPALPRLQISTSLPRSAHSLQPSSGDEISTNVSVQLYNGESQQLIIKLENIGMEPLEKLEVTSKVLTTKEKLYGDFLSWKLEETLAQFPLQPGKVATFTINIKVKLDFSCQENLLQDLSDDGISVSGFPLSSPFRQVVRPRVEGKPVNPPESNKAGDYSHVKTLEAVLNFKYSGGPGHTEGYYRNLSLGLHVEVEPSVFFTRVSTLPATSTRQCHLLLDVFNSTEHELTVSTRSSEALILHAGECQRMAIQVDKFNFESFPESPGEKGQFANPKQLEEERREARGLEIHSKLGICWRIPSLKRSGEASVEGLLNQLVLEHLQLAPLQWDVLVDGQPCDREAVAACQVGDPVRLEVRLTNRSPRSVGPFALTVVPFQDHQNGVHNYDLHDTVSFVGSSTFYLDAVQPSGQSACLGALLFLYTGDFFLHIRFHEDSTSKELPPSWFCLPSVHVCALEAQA

effect of a mutation on the interaction: decreasing interaction strength
Substance: Trafficking protein particle complex subunit 2 (Mus musculus) (from UniProt Q9CQP2) D47Y

Reference: IntAct's records for PubMed 21858081
